Results on one variant are retold here after PMC12461627, “Locking CBL TKBD in its native conformation presents a novel therapeutic opportunity in mutant CBL-dependent leukemia” (Molecular Therapy, 2025).

First the molecules themselves.
B1: unnamed (parent)
chain 1: MTVEEMDSWIKSWDQM
chain 2: PPGTVDKKMVEKCWKLMDKVVRLCQNPKLALKNSPPYILDLLPDTYQHLRTILSRYEGKMETLGENEYFRVFMENLMKKTKQTISLFKEGKERMYEENSQPRRNLTKLSLIFSHMLAELKGIFPSGLFQGDTFRITKADAAEFWRKAFGEKTIVPWKSFRQALHEVHPISSGLEAMALKSTIDLTCNDYISVFEFDIFTRLFQPWSSLLRNWNSLAVTHPGYMAFLTYDEVKARLQKFIHKPGSYIFRLSCTRLGQWAIGYVTADGNILQTIPHNKPLFQALIDGFREGFYLFPDGRNQNPDLTGLCEP

Variants of B1 are the subject of the test. In words: phage ELISA. The following applies: with partner chain of the complex shown;; read off a plot. Background: ELISA stands for enzyme-linked immunosorbent assay.
Turning to chain 2 PPGTVDKKMVEKCWKLMDKVVRLCQNPKLALKNSPPYILDLLPDTYQHLRTILSRYEGKMETLGENEYFRVFMENLMKKTKQTISLFKEGKERMYEENSQPRRNLTKLSLIFSHMLAELKGIFPSGLFQGDTFRITKADAAEFWRKAFGEKTIVPWKSFRQALHEVHPISSGLEAMALKSTIDLTCNDYISVFEFDIFTRLFQPWSSLLRNWNSLAVTHPGYMAFLTYDEVKARLQKFIHKPGSYIFRLSCTRLGQWAIEYVTADGNILQTIPHNKPLFQALIDGFREGFYLFPDGRNQNPDLTGLCEP [chain 2 G260E], the response amounted to 0.1 OD at 450 nm.
